# Residue numbers refer to the chain shown, from its start.
# T1: DLL3 on cells (SHP-77, NCI-H82, HEK-DLL3, membrane proteome array cells) (human, UniProt Q9NYJ7 27-618)
# T1 construct: whole, on cells; also called hDLL3
# T1 sequence (looked up): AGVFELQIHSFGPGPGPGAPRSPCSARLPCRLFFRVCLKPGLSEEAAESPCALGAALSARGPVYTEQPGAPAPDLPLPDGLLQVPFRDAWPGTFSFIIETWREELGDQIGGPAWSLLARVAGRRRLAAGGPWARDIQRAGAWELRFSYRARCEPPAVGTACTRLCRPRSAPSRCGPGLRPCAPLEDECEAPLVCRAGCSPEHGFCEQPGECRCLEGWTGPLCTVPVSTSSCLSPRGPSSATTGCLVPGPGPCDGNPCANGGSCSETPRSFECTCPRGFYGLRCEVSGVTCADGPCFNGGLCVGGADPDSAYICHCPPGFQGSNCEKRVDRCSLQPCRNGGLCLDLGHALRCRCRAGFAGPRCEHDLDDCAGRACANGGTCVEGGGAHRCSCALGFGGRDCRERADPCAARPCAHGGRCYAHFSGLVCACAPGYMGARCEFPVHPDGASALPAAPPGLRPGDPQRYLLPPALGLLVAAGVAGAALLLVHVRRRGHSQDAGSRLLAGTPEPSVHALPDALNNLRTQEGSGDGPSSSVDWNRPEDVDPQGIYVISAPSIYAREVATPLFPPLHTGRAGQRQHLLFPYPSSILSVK
# T2: mouse DLL3 (mouse, UniProt O88516 25-477, limits assumed)
# T2 construct: also called mDLL3; murine DLL3
# T2 sequence (looked up): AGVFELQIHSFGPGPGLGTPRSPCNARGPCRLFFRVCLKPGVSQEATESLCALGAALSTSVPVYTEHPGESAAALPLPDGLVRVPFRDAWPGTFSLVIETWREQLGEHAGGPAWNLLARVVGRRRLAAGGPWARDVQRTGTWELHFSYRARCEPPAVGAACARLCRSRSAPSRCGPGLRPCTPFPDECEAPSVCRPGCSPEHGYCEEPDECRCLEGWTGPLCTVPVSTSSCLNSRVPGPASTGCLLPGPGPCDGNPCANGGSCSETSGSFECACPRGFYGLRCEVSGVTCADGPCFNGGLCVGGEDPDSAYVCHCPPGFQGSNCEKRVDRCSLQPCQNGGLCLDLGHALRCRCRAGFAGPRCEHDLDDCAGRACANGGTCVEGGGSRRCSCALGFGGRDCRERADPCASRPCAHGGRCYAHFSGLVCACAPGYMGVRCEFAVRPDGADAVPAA
# T3: human DLL3 (human, UniProt Q9NYJ7 27-492, limits assumed)
# T3 construct: also called hDLL3; Delta-like protein 3
# T3 sequence (looked up): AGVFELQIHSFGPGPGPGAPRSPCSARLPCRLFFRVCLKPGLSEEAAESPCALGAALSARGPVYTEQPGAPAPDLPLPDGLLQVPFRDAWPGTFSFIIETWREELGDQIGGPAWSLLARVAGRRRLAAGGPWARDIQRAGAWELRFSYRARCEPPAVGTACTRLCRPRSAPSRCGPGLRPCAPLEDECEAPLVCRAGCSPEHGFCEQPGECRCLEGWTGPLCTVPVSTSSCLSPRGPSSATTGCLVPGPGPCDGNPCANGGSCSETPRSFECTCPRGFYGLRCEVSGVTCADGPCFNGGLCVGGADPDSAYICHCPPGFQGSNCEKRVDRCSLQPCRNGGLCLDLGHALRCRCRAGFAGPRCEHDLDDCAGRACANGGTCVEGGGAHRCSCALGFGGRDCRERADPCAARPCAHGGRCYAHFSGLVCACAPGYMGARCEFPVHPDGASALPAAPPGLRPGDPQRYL
# B1: 126 (Fc fusion)
# chain: QVQLVESGGGMVQPGGSLRLSCAASGITFSMYSMSWYRQPPGKQRELVAATTTFGSTNYADSVKGRFTISRDNAKNTVYLQMNSLKPEDTAVYLCNARFTSEEYWGQGTQVTVSSEPKSSDKTHTCPPCPAPEAEGAPSVFLFPPKPKDTLMISRTPEVTCVVVDVSHEDPEVKFNWYVDGVEVHNAKTKPREEQYNSTYRVVSVLTVLHQDWLNGKEYKCKVSNKALPSSIEKTISKAKGQPREPQVYTLPPSREEMTKNQVSLTCLVKGFYPSDIAVEWESNGQPENNYKTTPPVLDSDGSFFLYSKLTVDKSRWQQGNVFSCSVMHEALHNQYTQKSLSLSPG
# notes: Parental camelid VHH-Fc
# B2: 186 (Fc fusion)
# chain: QVQVVESGGGLVQPGGSLTLSCAASGFDFSTYTVNWYRQAPGKEREKVARISSTGTTTNYANSAKGRFTLSRDNAKNRVYLQMNNLKPEDTAVYFCNFERFDSNYWGQGTQVTVSSEPKSSDKTHTCPPCPAPEAEGAPSVFLFPPKPKDTLMISRTPEVTCVVVDVSHEDPEVKFNWYVDGVEVHNAKTKPREEQYNSTYRVVSVLTVLHQDWLNGKEYKCKVSNKALPSSIEKTISKAKGQPREPQVYTLPPSREEMTKNQVSLTCLVKGFYPSDIAVEWESNGQPENNYKTTPPVLDSDGSFFLYSKLTVDKSRWQQGNVFSCSVMHEALHNQYTQKSLSLSPG
# notes: Parental camelid VHH-Fc
# B3: 186_zu1 (Fc fusion)
# chain: QVQLVESGGGLVQPGGSLRLSCAASGFDFSTYTVNWFRQAPGQGLEAVARISSTGTTTNYANSAKGRFTISRDNSKNTLYLQMNSLRAEDTAVYYCAAERFDSNYWGQGTLVTVSSEPKSSDKTHTCPPCPAPEAEGAPSVFLFPPKPKDTLMISRTPEVTCVVVDVSHEDPEVKFNWYVDGVEVHNAKTKPREEQYNSTYRVVSVLTVLHQDWLNGKEYKCKVSNKALPSSIEKTISKAKGQPREPQVYTLPPSREEMTKNQVSLTCLVKGFYPSDIAVEWESNGQPENNYKTTPPVLDSDGSFFLYSKLTVDKSRWQQGNVFSCSVMHEALHNQYTQKSLSLSPG
# notes: Humanized VHH-Fc
# B4: 186_zu2 (Fc fusion)
# chain: B3 chain with A47K
# notes: Humanized VHH-Fc
# B5: 126_zu4 (Fc fusion)
# chain: B1 chain with M11L, P40A, K43Q, A74S, V78L, K86R, P87A, L94Y, N96A, Q110L
# notes: Humanized VHH-Fc
# B6: 126_zu3 (Fc fusion)
# chain: QVQLVESGGGLVQPGGSLRLSCAASGITFSMYSMSWYRQAPGQGLELVAATTTFGSTNYADSVKGRFTISRDNSKNTLYLQMNSLRAEDTAVYYCAARFTSEEYWGQGTLVTVSSEPKSSDKTHTCPPCPAPEAEGAPSVFLFPPKPKDTLMISRTPEVTCVVVDVSHEDPEVKFNWYVDGVEVHNAKTKPREEQYNSTYRVVSVLTVLHQDWLNGKEYKCKVSNKALPSSIEKTISKAKGQPREPQVYTLPPSREEMTKNQVSLTCLVKGFYPSDIAVEWESNGQPENNYKTTPPVLDSDGSFFLYSKLTVDKSRWQQGNVFSCSVMHEALHNQYTQKSLSLSPG
# notes: Humanized VHH-Fc
# B7: 126_zu1 (Fc fusion)
# chain: B6 chain with Y37F, L47A
# notes: Humanized VHH-Fc
# B8: 126_zu5 (Fc fusion)
# chain: B6 chain with A40P, Q43K, G44Q, L45R
# notes: Humanized VHH-Fc
# B9: 107_zu4 (Fc fusion)
# chain: QVQLVESGGGLVQPGGSLRLSCAASDRTFSSYAVGWFRQAPGQEREFVAAISWNGGRTLYTDSVTGRFTISRDNSKNTLYLQMNSLRAEDTAVYYCAARPAAPTRRLEYDYWGQGTLVTVSSEPKSSDKTHTCPPCPAPEAEGAPSVFLFPPKPKDTLMISRTPEVTCVVVDVSHEDPEVKFNWYVDGVEVHNAKTKPREEQYNSTYRVVSVLTVLHQDWLNGKEYKCKVSNKALPSSIEKTISKAKGQPREPQVYTLPPSREEMTKNQVSLTCLVKGFYPSDIAVEWESNGQPENNYKTTPPVLDSDGSFFLYSKLTVDKSRWQQGNVFSCSVMHEALHNQYTQKSLSLSPG
# notes: Humanized VHH-Fc
# B10: 107_zu3 (Fc fusion)
# chain: B9 chain with E44G
# notes: Humanized VHH-Fc
# B11: 107_zu5 (Fc fusion)
# chain: B9 chain with Q43K
# notes: Humanized VHH-Fc
# B12: 126 Conjugate (Fc fusion)
# chain: B1 chain
# modifications: conjugated to p-SCN-Bn-DOTA, chelator-antibody ratio of 3-5 (lysine-based conjugation)
# B13: 107_zu2 Conjugate (Fc fusion)
# chain: B9 chain with E44G, R45L
# modifications: conjugated to p-SCN-Bn-DOTA, chelator-antibody ratio of 3-5 (lysine-based conjugation)
# B14: 100_zu5 (Fc fusion)
# chain: QVQLVESGGGLVQPGGSLRLSCAASGIVFNSDVMGWYRQVPGKPRELVATITGGGSTNYATSVKGRFTISRDNSKNTLYLQMNSLRAEDTAVYYCAARRGDSMLAFWGQGTLVTVSSEPKSSDKTHTCPPCPAPEAEGAPSVFLFPPKPKDTLMISRTPEVTCVVVDVSHEDPEVKFNWYVDGVEVHNAKTKPREEQYNSTYRVVSVLTVLHQDWLNGKEYKCKVSNKALPSSIEKTISKAKGQPREPQVYTLPPSREEMTKNQVSLTCLVKGFYPSDIAVEWESNGQPENNYKTTPPVLDSDGSFFLYSKLTVDKSRWQQGNVFSCSVMHEALHNQYTQKSLSLSPG
# notes: Humanized VHH-Fc
# Target: T1, DLL3 on cells (SHP-77, NCI-H82, …)
# Experiment: flow cytometry on SHP-77 cells, Geomeans RL1-H
row,EC50 (read off the curve) [nM],Binder
1,~0.1,B1
2,~0.1,B2
3,~0.3,B3
4,~0.1,B4

# Target: T1, DLL3 on cells (SHP-77, NCI-H82, …)
# Experiment: flow cytometry on SHP-77 cells, Geomeans RL1-H
# Remark: another data set of the same source
EC50 (read off the curve) [nM],binding result,Binder
~0.1,,B5
~0.1,,B6
,binds,B7
~0.1,,B8
~0.1,,B1
,binds,B9
,binds,B10
,binds,B11

# Target: T1, DLL3 on cells (SHP-77, NCI-H82, …)
# Experiment: flow cytometry on SHP-77 cells, Geomeans RL1-H; p-SCN-Bn-DOTA conjugate against the unconjugated VHHFc
row,EC50 (read off the curve) [nM],Binder
1,~0.2,B12
2,~0.1,B13

# Target: T2, mouse DLL3
# Experiment: ELISA
row,binding result,Binder
1,no binding,B5
2,no binding,B6
3,no binding,B7
4,no binding,B8
5,no binding,B3
6,no binding,B4
7,no binding,B14

# Target: T3, human DLL3
# Experiment: ELISA
row,binding result,Binder
1,binds,B7
2,binds,B9
3,binds,B10
4,binds,B11
5,no binding,B14
